Assay: soluble on expression in E. coli; label from the status in PepcDB or PDB records

Sequence	soluble on expression in E. coli
MEPSGGEQEPGAVRFLDLPWEDVLLPHVLNRVPLRQLLRLQRVSRAFRSLVQLHLAGLRRFDAAQVGPQIPRAALARLLRDAEGLQELALAPCHEWLSDEDLVPVLARNPQLRSVALGGCGQLSRRALGALAEGCPRLQRLSLAHCDWVDGLALRGLADRCPALEELDLTACRQLKDEAIVYLAQRRGAGLRSLSLAVNANVGDAAVQELARNCPELHHLDLTGCLRVGSDGVRTLAEYCPVLRSLRVRHCHHVAESSLSRLRKRGVDIDVEPPLHQALVLLQDMAGFAPFVNLQV	soluble
MEQLLERIFDELAFLRANMATKDDVAALKDDIRALESRASHIEQTMATKDDIAAMDKRIGQIEQTMATKDDIASIEQRMATKDDVADIPFIKQAVMETLETINEIPAIKQTLAEALRKLDDVIASQARQELVLQSLAFRSLEQENEIRALKAK	not soluble
MEQLRAAARLQIVLGHLGRPSAGAVVAHPTSGTISSASFHPQQFQYTLDNNVLTLEQRKFYEENGFLVIKNLVPDADIQRFRNEFEKICRKEVKPLGLTVMRDVTISKSEYAPSEKMITKVQDFQEDKELFRYCTLPEILKYVECFTGPNIMAMHTMLINKPPDSGKKTSRHPLHQDLHYFPFRPSDLIVCAWTAMEHISRNNGCLVVLPGTHKGSLKPHDYPKWEGGVNKMFHGIQDYEENKARVHLVMEKGDTVFFHPLLIHGSGQNKTQGFRKAISCHFASADCHYIDVKGTSQENIEKEVVGIAHKFFGAENSVNLKDIWMFRARLVKGERTNL	not soluble
MERIERISEEIKREISDIIQNELKDPRLSKLISITEVNVTKDLRYAKVYVSVMGSEEEKANSLEGLKSAAGFIRREIGRRVQLRYTPEIHFELDNSIERGAYITKLINETSAQNKGSKDPEDT	soluble
MERKWIKKKAHIVPTHAMYGLAQVLKDIGIDVISLVNYALNLHDYHYNGFEPGFSRYSKKEEVFRDLITLVKETRKVIDIYYSKYEVKEILGKINELIKELTEGNKLEHHHHHH	not soluble
MERLDFSSIIRKDREEHKSKKFEGTFLEYLEIVKENPEITMLAHQRMYKLITEPGVTVIRTEENPRLRRIYGNDIIKKYKFFEDEFFGIDKTIMKIVRYFHSAAMAGEEARQVLYLVGPVGAGKSSLMEALKRALEMSPPIYALKGCPMREEPLHLVPKHLRKEFEEILNVRIEGDLCPICRYRLKNEYNGEYERFPVETVDFSIRSRKGIGVVPPVDPNNQDTSVLIGSVDISKIDLYPEDDPRVLSLNGAFNVGNRGIVEFIEVFKNETEYLHTMITATQEKSIPSPGKGSMIYFDGIILAHSNEAEWNKFKSDHTNEAILDRIVKIEVPYCLELNEEIKIYEKILRKSKFDAHIAPHTIEIAAMFAILTRLAPSNKVDPMTKLKIYNGEEIIEKGMTKKVDIFELKEEAPREGMTGISTRFIMKVLDTTLSESEHNCINPISVMETLVKSIKELSISEEERERYLRFVQDSIRKEYNKILEREITKAFIHGYKEQAESLFNNYLDHAEAFVNKSKIKDRNTGEELEPDEKFLRSIEEQIGITDTAAKGFRADVTAYMFYVLRNGGKLDYTSYEPLKEAIEKKLTSSVRELSRVITQAKVRDKEQSEKYDTMVQEMKNNGYCDHCCNVILKYAANNLWKD	soluble
MERPQPDSMPQDLSEALKEATKEVHTQAENAEFMRNFQKGQVTRDGFKLVMASLYHIYVALEEEIERNKESPVFAPVYFPEELHRKAALEQDLAFWYGPRWQEVIPYTPAMQRYVKRLHEVGRTEPELLVAHAYTRYLGDLSGGQVLKKIAQKALDLPSSGEGLAFFTFPNIASATKFKQLYESRMNSLEMTPAVRQRVIEEAKTAFLLNIQLFEELQELLTHDTKDQSPSRA	soluble
MESFIDRITEETDENFRICRENIPNFETTISPLLNTMKNIKLLLDDAAFDQQKLENNCEETCMNCTKSQLNDFLGIKVEASTIVDVKSQLVPQSKESSALVETNEPNEQGLSSKPKENDIRIVPQITDEEFKTIPKYQLGRLTLEMMNEIVSKMDDFLMKKSKILGKTNKQLTRSDREVLDNWRELEMKARKRLPTTLFFIETDIRPMLQDRLRPSFAKAIPCLRHIRRIREERCGPLTFYYP	not soluble
MESGVPLVVVLRDVLEYVDDTSEAQYAINTDGVLVNGDSVGDVNRPIGMFDILAFPDRDEYYRVFPDEGGRLGLTEIDADAAGSKLNKVTDKTTVSGGRTQLNFHDGSNLALDEDAYAGGDSVVVDTDTNEIVAHFQYEEGALVTAVAGQHAGDIGEIAEINVQPGSASNTVRVDDENGGFETIAEYVVVIDENFLEHHHHHH	soluble
MESIEQQLTELRTTLRHHEYLYHVMDAPEIPDAEYDRLMRELRELETKHPELITPDSPTQRVGAAPLAAFSQIRHEVPMLSLDNVFDEESFLAFNKRVQDRLKNNEKVTWCCELKLDGLAVSILYENGVLVSAATRGDGTTGEDITSNVRTIRAIPLKLHGENIPARLEVRGEVFLPQAGFEKINEDARRTGGKVFANPRNAAAGSLRQLDPRITAKRPLTFFCYGVGVLEGGELPDTHLGRLLQFKKWGLPVSDRVTLCESAEEVLAFYHKVEEDRPTLGFDIDGVVIKVNSLAQQEQLGFVARAPRWAVAFKFPAQEQMTFVRDVEFQVGRTGAITPVARLEPVHVAGVLVSNATLHNADEIERLGLRIGDKVVIRRAGDVIPQVVNVVLSERPEDTREVVFPTHCPVCGSDVERVEGEAVARCTGGLICGAQRKESLKHFVSRRAMDVDGMGDKIIDQLVEKEYVHTPADLFKLTAGKLTGLERMGPKSAQNVVNALEKAKETTFARFLYALGIREVGEATAAGLAAYFGTLEALEAASIEELQKVPDVGIVVASHVHNFFAEESNRNVISELLAEGVHWPAPIVINAEEIDSPFAGKTVVLTGSLSQMSRDDAKARLVELGAKVAGSVSKKTDLVIAGEAAGSKLAKAQELGIEVIDEAEMLRLLGS	soluble
MESIKLSQKAEEEIVNAARMAALSNLTEKSQNLITLEDIAIYFGRHYQTVAKIISKLPNFPKPVTPVTVDQQNSRPRYIAGEVVRWGRINAKPY	not soluble
MESKVVVPAQGKKITLQNGKLNVPENPIIPYIEGDGIGVDVTPAMLKVVDAAVEKAYKGERKISWMEIYTGEKSTQVYGQDVWLPAETLDLIREYRVAIKGPLTTPVGGGIRSLNVALRQELDLYICLRPVRYYQGTPSPVKHPELTDMVIFRENSEDIYAGIEWKADSADAEKVIKFLREEMGVKKIRFPEHCGIGIKPCSEEGTKRLVRAAIEYAIANDRDSVTLVHKGNIMKFTEGAFKDWGYQLAREEFGGELIDGGPWLKVKNPNTGKEIVIKDVIADAFLQQILLRPAEYDVIACMNLNGDYISDALAAQVGGIGIAPGANIGDECALFEATHGTAPAYAGQDKVNPGSIILSAEMMLRHMGWTEAADLIVKGMEGAINAKTVTYDFERLMDGAKLLKCSEFGDAIIENM	soluble
MESLAAKVVERLNRAESAAELRFCHDELARELRRCLAPEQMKQLAGDVVCVHEAILRRAFFLAERETMKRSVGIRPPAWCWYVMGSIGRREPTIWTDQDHGILFDCPEEEEAACYEFIRHMAAVGVDMLHEAGYPYCSGYVMATNKRWAQSVRGWEQQLSSYLDSGWPNDIRFLLIAMDMRPLYGETELAEEGRRMLFSAVAKRPPLLAVRPAWVRRYRVKVPNGGWRAPTVS	not soluble
MESLKSNLFLTREAYLEAFETIMTPLKTAILTSEKPGVNFGSSGAVYDQQHAEMEALIRPLWGIGPYWVTCKDDVLRDAYVEKLIAGTDPSSPDYWGVIVDYDQYIVEAAALSLTLLLHKTYFWSCFSEKQQENIMVWLNKALGCKIPKNNWTFFKVLIRLALEGCGQVINQAELEEELALIECMYLGDGWYMDGKTTQRDYYISFAFHYYSLIYVKFMRERDPIRAKRFTERAVMFAQDYLYYFDEEGEALPYGRSQTYRFAQGAFFAALIFAEVEALPWGQIKTLLAKHLHCWMQQAIFTYDGRLSIGYHYENLVMAEGYNAPGSPYWAFKTFLLLAVDQDHPFWRAEPLAIKREEKRLIEKGNMLLIHPKMKTHVLGYPAGLWLENQAHAAAKYSKFVYSSRFGFSVPKAGARYEEGAFDNVLAVSRDGEYFRVKGKVHDFYLTEEQVYYKWLPFQEVEIETTIYPFGEWHVRVHEIVTSVPLKVREGGFSLPLLGKFSEKELGKEWARVDSGELCSQIVAIEGYDHAGILQPEPNTSLFFPRTSLPYLQKELPIGTHRLICLVGGVTREE	soluble

From the DeepSol protein solubility set
